Assay results as given in publication PMC8673838, “MCPH1 inhibits Condensin II during interphase by regulating its SMC2-Kleisin interface” (eLife, 2021).
Each block holds one binder with its values, some of them ahead of it.

Legend:
[1] = target: T1, human condensin II pentameric complex (SMC2, SMC4, NCAPH2, NCAPD3, NCAPG2) (human, UniProt O95347 1-1197; Q9NTJ3 1-1288; Q6IBW4 1-605; P42695 1-1498; Q86XI2 1-1143); assay: native gel or EMSA; condensin II at increasing concentrations with MCPH1_(1-435)-MBP, MBP or 1 µM 5-FAM peptide and 50 nM Cy5-labelled 50 bp dsDNA; 15 min on ice; 2 % agarose, 0.5 x TBE; details: both partners purified
T1 construct: SMC2, human, subunit of condensin II; SMC4, human, subunit of condensin II; NCAPH2, human, kleisin subunit of condensin II; NCAPD3 (CAP-D3), human, HAWK subunit of condensin II; NCAPG2 (CAPG2), human, HAWK subunit of condensin II; It says only 'strep-tagged condensin II'; also called pentameric condensin II; strep-tagged condensin II; source: insect cells, purified as previously described (Kong …)
T1 sequence (O95347 whole entry, chain 1 of 4): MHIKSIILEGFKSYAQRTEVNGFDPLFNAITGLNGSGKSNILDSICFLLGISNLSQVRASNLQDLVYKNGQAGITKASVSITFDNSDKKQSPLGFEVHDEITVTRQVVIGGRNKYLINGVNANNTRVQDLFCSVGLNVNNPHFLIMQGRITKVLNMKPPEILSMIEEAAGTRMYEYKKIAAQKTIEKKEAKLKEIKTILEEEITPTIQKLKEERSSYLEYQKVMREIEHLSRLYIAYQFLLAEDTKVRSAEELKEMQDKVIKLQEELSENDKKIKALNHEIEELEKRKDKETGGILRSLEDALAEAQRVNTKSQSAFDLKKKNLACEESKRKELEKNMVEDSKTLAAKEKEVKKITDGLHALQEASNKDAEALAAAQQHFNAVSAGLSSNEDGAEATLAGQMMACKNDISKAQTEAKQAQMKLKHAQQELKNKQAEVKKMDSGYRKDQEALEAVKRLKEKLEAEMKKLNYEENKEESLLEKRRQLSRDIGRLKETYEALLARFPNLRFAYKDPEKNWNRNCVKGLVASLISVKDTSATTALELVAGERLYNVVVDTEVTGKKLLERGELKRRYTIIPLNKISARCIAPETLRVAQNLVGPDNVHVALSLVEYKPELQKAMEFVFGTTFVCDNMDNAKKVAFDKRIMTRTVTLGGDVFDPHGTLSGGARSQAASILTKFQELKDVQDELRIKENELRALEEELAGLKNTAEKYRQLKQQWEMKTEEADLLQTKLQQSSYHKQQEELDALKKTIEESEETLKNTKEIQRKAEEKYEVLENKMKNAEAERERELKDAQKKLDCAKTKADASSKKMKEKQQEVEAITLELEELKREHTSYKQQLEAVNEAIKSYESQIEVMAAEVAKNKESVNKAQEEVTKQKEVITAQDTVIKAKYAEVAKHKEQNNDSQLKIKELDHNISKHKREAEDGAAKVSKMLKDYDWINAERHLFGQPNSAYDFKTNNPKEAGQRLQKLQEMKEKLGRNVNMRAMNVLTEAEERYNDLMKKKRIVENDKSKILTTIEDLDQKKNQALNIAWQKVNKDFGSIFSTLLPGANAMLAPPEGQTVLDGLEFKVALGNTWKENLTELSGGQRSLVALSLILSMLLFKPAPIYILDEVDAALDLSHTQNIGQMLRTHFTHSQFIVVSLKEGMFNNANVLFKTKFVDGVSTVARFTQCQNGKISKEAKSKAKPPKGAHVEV
T1 sequence (Q9NTJ3 whole entry, chain 2 of 4): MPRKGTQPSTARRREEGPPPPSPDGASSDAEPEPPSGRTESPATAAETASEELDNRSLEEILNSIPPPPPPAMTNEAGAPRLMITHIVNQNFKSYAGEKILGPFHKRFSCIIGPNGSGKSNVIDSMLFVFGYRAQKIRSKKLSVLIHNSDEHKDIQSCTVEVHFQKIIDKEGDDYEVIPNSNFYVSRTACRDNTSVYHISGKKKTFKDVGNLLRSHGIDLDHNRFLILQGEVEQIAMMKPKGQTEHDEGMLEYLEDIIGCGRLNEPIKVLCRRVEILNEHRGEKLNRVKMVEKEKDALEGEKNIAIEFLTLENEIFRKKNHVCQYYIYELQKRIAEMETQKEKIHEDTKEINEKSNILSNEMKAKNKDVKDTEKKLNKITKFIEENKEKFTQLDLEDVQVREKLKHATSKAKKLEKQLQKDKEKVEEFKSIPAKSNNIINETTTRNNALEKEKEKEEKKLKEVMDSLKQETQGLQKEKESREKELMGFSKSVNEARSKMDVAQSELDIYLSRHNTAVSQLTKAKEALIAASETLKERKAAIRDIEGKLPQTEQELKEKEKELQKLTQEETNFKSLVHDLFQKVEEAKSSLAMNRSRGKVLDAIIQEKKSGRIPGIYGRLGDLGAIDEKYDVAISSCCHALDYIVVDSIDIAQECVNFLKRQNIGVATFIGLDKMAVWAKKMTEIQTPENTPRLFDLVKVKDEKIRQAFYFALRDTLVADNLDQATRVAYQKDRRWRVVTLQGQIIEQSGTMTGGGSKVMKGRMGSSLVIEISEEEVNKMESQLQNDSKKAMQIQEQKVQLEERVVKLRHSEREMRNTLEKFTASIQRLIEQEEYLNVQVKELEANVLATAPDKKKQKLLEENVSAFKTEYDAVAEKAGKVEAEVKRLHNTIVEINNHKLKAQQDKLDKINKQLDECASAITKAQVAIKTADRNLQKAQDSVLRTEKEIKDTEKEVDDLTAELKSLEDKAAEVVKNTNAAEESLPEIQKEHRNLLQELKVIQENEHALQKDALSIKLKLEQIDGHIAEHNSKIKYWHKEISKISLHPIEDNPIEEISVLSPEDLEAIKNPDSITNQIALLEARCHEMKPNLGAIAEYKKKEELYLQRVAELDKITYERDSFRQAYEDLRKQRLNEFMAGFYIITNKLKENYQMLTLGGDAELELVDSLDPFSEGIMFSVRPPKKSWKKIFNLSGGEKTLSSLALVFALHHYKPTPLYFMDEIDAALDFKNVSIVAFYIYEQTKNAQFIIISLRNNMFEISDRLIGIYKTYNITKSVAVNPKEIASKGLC
T1 sequence (Q6IBW4 whole entry, chain 3 of 4): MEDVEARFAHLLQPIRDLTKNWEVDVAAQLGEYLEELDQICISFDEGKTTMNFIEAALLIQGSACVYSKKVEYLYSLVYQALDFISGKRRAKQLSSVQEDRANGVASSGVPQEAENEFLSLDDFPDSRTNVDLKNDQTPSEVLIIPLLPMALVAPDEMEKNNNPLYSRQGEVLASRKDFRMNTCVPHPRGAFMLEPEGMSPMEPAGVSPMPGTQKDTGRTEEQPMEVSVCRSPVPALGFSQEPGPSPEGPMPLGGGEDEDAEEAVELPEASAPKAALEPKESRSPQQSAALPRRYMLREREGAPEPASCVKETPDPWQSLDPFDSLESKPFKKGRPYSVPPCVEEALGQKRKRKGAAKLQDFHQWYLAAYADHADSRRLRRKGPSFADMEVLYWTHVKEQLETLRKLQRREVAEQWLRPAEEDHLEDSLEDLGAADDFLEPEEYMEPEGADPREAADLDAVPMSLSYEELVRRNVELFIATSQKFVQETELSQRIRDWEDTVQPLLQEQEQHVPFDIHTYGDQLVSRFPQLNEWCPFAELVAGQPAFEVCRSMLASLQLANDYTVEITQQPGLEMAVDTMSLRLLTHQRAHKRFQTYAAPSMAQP
T1 sequence (P42695 whole entry, chain 4 of 4): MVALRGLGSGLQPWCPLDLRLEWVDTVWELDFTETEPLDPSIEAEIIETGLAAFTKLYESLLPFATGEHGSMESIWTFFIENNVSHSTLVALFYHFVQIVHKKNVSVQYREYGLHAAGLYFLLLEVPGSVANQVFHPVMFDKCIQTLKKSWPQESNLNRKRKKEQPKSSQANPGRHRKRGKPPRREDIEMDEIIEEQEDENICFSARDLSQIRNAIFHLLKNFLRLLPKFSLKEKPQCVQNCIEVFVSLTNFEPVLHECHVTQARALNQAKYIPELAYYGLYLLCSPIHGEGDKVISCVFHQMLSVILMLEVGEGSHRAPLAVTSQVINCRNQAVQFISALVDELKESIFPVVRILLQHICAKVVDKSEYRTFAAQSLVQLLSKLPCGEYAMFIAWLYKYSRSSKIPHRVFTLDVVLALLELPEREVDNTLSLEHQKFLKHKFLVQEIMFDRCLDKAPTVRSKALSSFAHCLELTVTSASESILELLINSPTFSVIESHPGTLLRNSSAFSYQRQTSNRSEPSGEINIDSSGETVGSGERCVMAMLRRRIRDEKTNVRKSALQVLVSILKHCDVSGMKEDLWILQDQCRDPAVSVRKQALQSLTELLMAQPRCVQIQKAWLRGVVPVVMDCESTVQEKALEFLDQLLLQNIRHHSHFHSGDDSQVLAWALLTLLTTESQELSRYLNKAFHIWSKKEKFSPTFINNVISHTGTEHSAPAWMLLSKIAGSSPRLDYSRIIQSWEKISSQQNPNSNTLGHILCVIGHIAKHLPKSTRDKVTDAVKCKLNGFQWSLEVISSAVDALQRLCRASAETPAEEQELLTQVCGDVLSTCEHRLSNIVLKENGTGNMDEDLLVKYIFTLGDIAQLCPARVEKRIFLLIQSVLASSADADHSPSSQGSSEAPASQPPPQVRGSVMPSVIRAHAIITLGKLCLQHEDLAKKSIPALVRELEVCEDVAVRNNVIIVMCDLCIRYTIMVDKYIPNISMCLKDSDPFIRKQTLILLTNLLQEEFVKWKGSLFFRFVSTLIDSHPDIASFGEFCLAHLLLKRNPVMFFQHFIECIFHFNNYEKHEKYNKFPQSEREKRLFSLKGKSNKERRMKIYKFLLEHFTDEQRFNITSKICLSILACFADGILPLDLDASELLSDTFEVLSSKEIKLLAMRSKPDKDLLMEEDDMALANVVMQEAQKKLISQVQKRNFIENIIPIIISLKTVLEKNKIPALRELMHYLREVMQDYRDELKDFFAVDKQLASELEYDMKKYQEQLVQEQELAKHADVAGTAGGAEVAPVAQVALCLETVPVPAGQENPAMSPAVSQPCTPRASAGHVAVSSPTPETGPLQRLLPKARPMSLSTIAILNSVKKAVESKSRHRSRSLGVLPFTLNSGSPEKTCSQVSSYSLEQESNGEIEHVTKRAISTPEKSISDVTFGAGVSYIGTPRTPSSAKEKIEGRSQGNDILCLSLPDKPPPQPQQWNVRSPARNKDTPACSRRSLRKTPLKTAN

[2] = target: T2, NCAPG2 subunit of human condensin II (human, UniProt Q86XI2 1-1143); assay: pull-down; strep-tagged condensin complexes (0.1 µM) with at least a 10-fold molecular excess of MBP MCPH1 constructs or MBP, Strep-tactin sepharose, 20 mM Tris pH 7.5, 150 mM NaCl, 10 % glycerol, 1 mM DTT; five washes; Coomassie or silver stain; details: both partners purified
T2 construct: NCAPG2, human, HAWK subunit of condensin II; Never tested alone: the contact is drawn from complexes with and without this subunit; source: insect cells, as a subunit of purified condensin II (Kong et al., 2020)
T2 sequence (looked up): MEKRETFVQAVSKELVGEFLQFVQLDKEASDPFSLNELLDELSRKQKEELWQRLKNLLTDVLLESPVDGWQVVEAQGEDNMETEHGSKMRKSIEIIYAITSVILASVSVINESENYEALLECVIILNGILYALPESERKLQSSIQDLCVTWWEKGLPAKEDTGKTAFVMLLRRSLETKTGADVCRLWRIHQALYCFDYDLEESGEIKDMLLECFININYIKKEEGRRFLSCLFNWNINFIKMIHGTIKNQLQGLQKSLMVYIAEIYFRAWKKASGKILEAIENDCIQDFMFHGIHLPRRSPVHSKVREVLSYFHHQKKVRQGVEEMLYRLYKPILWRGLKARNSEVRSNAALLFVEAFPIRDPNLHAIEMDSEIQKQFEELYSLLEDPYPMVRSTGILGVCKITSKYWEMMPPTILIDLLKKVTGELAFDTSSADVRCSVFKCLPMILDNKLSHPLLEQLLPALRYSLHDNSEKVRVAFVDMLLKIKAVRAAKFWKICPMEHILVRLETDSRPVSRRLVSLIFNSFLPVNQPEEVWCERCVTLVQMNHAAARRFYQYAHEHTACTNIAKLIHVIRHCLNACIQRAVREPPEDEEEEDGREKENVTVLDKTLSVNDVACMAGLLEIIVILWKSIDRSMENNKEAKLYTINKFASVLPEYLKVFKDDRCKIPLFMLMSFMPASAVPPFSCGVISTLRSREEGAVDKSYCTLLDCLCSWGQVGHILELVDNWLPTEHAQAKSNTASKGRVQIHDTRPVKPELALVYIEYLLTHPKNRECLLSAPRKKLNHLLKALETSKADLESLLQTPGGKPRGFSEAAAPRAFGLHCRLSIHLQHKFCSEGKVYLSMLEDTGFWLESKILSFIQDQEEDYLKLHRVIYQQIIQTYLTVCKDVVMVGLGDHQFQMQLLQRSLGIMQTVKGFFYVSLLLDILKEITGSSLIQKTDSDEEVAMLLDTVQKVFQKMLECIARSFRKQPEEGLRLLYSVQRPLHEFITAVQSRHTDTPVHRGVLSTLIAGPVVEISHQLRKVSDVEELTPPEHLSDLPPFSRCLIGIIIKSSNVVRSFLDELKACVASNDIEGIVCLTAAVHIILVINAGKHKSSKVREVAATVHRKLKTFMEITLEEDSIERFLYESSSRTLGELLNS

[3] = target: T3, tetrameric condensin II lacking NCAPD3 (human, UniProt O95347 1-1197; Q9NTJ3 1-1288; Q6IBW4 1-605; Q86XI2 1-1143); assay: as above; details: both partners purified
T3 construct: SMC2, human; SMC4, human; NCAPH2, human; NCAPG2, human; also called tetrameric condensin II lacking the CAP-D3 subunit; source: insect cells, purified as previously described (Kong et al., 2020); copies: + + +
T3 sequence (O95347 whole entry, chain 1 of 3): as the sequence (O95347 whole entry, chain 1 of 4) above
T3 sequence (Q9NTJ3 whole entry, chain 2 of 3): as the sequence (Q9NTJ3 whole entry, chain 2 of 4) above
T3 sequence (Q6IBW4 whole entry, chain 3 of 3): as the sequence (Q6IBW4 whole entry, chain 3 of 4) above

[4] = target: T1, human condensin II pentameric complex …; assay: SEC; complex of condensin II (wild type or Q-loop mutant) with MCPH1_(1-435)MBP purified by gel filtration on Superose 6 10/300 in 20 mM Tris pH 7.5, 150 mM NaCl, 1 mM DTT, for ATPase assays; details: both partners purified
[5] = target: T4, condensin II with Q-loop mutation (SMC2 Q147L, SMC4 Q229L) (human, UniProt O95347 1-1197; Q9NTJ3 1-1288; Q6IBW4 1-605; P42695 1-1498; Q86XI2 1-1143, SMC2 Q147L | SMC4 Q229L); assay: as above; details: both partners purified
T4 construct: SMC2, human, Q-loop mutant; SMC4, human, Q-loop mutant; NCAPH2, human; NCAPD3, human; NCAPG2, human; also called ATPase hydrolysis deficient Q-loop mutant condensin II; source: insect cells, purified as previously described (Kong et al., 2020); copies: + + + +
T4 sequence (O95347 whole entry Q147L, chain 1 of 4): as the sequence (O95347 whole entry, chain 1 of 4) above, with Q147L counted along it
T4 sequence (Q9NTJ3 whole entry Q229L, chain 2 of 4): as the sequence (Q9NTJ3 whole entry, chain 2 of 4) above, with Q229L counted along it
T4 sequence (Q6IBW4 whole entry, stated change not applied, chain 3 of 4): as the sequence (Q6IBW4 whole entry, chain 3 of 4) above
T4 sequence (P42695 whole entry, stated change not applied, chain 4 of 4): as the sequence (P42695 whole entry, chain 4 of 4) above

MCPH1 1-435-MBP = target: T5, MCPH1 1-435-MBP (Homo sapiens, UniProt Q8NEM0 1-435); assay: EMSA; 50 nM DNA; EMSA with 50 nM 5'-Cy5 50 bp dsDNA; EMSA buffer, salt, pH and temperature not given in the material; details: protein: recombinant; tags: N-term 6xHis, C-term MBP; label: 5' Cy5; blunt
T5 sequence: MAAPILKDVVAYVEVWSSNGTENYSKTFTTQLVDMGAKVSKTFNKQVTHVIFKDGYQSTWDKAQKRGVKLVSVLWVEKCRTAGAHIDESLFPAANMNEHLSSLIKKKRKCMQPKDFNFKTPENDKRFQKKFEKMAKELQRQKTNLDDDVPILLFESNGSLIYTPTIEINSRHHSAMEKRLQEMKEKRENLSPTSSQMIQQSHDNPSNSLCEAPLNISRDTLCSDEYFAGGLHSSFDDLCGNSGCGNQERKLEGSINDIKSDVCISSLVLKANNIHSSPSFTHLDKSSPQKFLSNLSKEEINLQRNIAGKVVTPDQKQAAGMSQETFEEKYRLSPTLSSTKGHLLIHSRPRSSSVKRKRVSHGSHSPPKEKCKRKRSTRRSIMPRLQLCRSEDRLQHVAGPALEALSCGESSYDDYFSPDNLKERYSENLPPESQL

condensin II pentamer = condensin II pentamer (Homo sapiens, UniProt O95347;Q9NTJ3;Q6IBW4;P42695;Q86XI2 1-1197;1-1288;1-605;1-1498;1-1143); assay: EMSA; with MBP control or without peptide; EMSA with 50 nM 5'-Cy5 50 bp dsDNA; EMSA buffer, salt, pH and temperature not given in the material; details: protein: recombinant; tags: Strep tag; copies: 1;1;1;1;1; label: 5' Cy5; blunt
[6] = target: condensin II pentamer;MCPH1 1-435-MBP (Homo sapiens;Homo sapiens, UniProt O95347;Q9NTJ3;Q6IBW4;P42695;Q86XI2;Q8NEM0 …, |); assay: EMSA; condensin II bands shifted upward with MCPH1 1-435-MBP; EMSA with 50 nM 5'-Cy5 50 bp dsDNA; EMSA buffer, salt, pH and temperature not given in the material; details: protein: recombinant;recombinant; tags: Strep tag;N-term 6xHis, C-term MBP; copies: 1;1;1;1;1;1; label: 5' Cy5; blunt

- binding result [1]: binds
- binding result [2]: binds
- binding result [3]: binds
B1: MCPH1_(1-435)-MBP (domain or fragment, human, UniProt Q8NEM0 1-435, looked up)
chain: MAAPILKDVVAYVEVWSSNGTENYSKTFTTQLVDMGAKVSKTFNKQVTHVIFKDGYQSTWDKAQKRGVKLVSVLWVEKCRTAGAHIDESLFPAANMNEHLSSLIKKKRKCMQPKDFNFKTPENDKRFQKKFEKMAKELQRQKTNLDDDVPILLFESNGSLIYTPTIEINSRHHSAMEKRLQEMKEKRENLSPTSSQMIQQSHDNPSNSLCEAPLNISRDTLCSDEYFAGGLHSSFDDLCGNSGCGNQERKLEGSINDIKSDVCISSLVLKANNIHSSPSFTHLDKSSPQKFLSNLSKEEINLQRNIAGKVVTPDQKQAAGMSQETFEEKYRLSPTLSSTKGHLLIHSRPRSSSVKRKRVSHGSHSPPKEKCKRKRSTRRSIMPRLQLCRSEDRLQHVAGPALEALSCGESSYDDYFSPDNLKERYSENLPPESQL
notes: the text says the tag was moved to the C-terminus for this experiment; source: E. coli BL21 (DE3) pLysS, purified (Ni-NTA, ion exchange or heparin); not shown: MBP, C-terminal, kept

- binding result [4]: binds
- binding result [5]: binds
B2: MCPH1_(1-435)MBP after removal of the N-terminal 6xHis tag (domain or fragment, human, UniProt Q8NEM0 1-435, looked up)
chain: MAAPILKDVVAYVEVWSSNGTENYSKTFTTQLVDMGAKVSKTFNKQVTHVIFKDGYQSTWDKAQKRGVKLVSVLWVEKCRTAGAHIDESLFPAANMNEHLSSLIKKKRKCMQPKDFNFKTPENDKRFQKKFEKMAKELQRQKTNLDDDVPILLFESNGSLIYTPTIEINSRHHSAMEKRLQEMKEKRENLSPTSSQMIQQSHDNPSNSLCEAPLNISRDTLCSDEYFAGGLHSSFDDLCGNSGCGNQERKLEGSINDIKSDVCISSLVLKANNIHSSPSFTHLDKSSPQKFLSNLSKEEINLQRNIAGKVVTPDQKQAAGMSQETFEEKYRLSPTLSSTKGHLLIHSRPRSSSVKRKRVSHGSHSPPKEKCKRKRSTRRSIMPRLQLCRSEDRLQHVAGPALEALSCGESSYDDYFSPDNLKERYSENLPPESQL
notes: Same construct as m11, His tag cut off by TEV before gel filtration with condensin II; source: E. coli BL21 (DE3) pLysS, purified (Ni-NTA, ion exchange or heparin, SEC), treated with TEV protease; not shown: His6, N-terminal, cleaved; MBP, C-terminal, kept

B3: 50 bp dsDNA (dsDNA)
DNA 1: CTGTCACACCCTGTCACACCCTGTCACACCCTGTCACACCCTGTCACACC
DNA 2: GGTGTGACAGGGTGTGACAGGGTGTGACAGGGTGTGACAGGGTGTGACAG
- binding result (MCPH1 1-435-MBP): binds
- binding result (condensin II pentamer): binds
- binding result [6]: binds
